The target in experiment [1] is T1, Human TROP2 full length, on tumor cells (HCT116, MDAMB231, NCI-H292) (human, UniProt P09758 31-323).
T1 sequence: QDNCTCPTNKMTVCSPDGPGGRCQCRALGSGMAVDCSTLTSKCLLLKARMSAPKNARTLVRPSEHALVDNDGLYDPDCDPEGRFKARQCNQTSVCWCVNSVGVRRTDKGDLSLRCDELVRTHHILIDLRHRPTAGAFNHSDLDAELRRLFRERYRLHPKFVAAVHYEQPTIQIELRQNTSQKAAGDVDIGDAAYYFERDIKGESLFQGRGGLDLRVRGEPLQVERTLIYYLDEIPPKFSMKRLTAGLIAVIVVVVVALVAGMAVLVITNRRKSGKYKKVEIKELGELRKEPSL
In words: cell-based or functional assay.

Experiment [2] addresses T2, human CD3 epsilon, biotinylated (human, UniProt P07766 23-126, limits assumed, biotinylated (site not stated)).
T2 construct: Printed in places as CD36, CD38, CD3c or CD3&; also called CD3e-bio; human CD3e-biotin
In words: ELISA, CD3e-biotin captured. Background: In an ELISA, binding on a coated surface is turned into a signal by an enzyme label.

Experiment [3] addresses T2, human CD3 epsilon, biotinylated. In words: BLI, CD3e-biotin on sensor (summary). On the technique in general: BLI is a label-free optical method that tracks binding on a fibre tip over time.
Experimental: The wild-type (non-mutated) and alanine mutated TCEs were evaluated for their ability to bind CD36 or TROP2 via kinetic binding measurements using biolayer interferometry (BLI). […] The TCEs diluted in buffer were then associated onto the antigen loaded biosensors. Sensors were then transferred to buffer where the TCEs were then dissociated from the sensors. Association and dissociation rates were measured in real time using an Octet® instrument.

T2 sequence (P07766 23-126 limits assumed): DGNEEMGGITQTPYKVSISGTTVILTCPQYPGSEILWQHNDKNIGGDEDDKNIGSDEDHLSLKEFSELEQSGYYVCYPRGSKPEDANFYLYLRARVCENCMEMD

B1: TCE-34 (anti-CD3 scFv F240A, anti-TROP2 wt) (bispecific antibody)
light: DIQLTQSPSSLSASVGDRVSITCKASQDVSIAVAWYQQKPGKAPKLLIYSASYRYTGVPDRFSGSGSGTDFTLTISSLQPEDFAVYYCQQHYITPLTFGAGTKVEIKRTVAAPSVFIFPPSDEQLKSGTASVVCLLNNFYPREAKVQWKVDNALQSGNSQESVTEQDSKDSTYSLSSTLTLSKADYEKHKVYACEVTHQGLSSPVTKSFNRGEC
heavy: not shown
The term EC50 denotes the midpoint of the concentration-response curve. Read a low EC50 as higher potency in that assay. Turning to B1, the “H292 Cytotox EC50” value in experiment [1] is 0.02 nM. For the same molecule, the midpoint of the response in experiment [2], the EC50, lay at 0.6 nM. Also, the “CD3 t1/2” value in experiment [3] was determined as 39 s.

These data come from US20250154278A1 (JANUX THERAPEUTICS, published 2025).
